Experiments:
[1] = biological target: recombinant tau (human), P10636; assay: ELISA, recombinant tau coated on the plate, IgG titrated (Example 7); details: remark: other sources report otherwise
[2] = biological target: tau 48-71 (human); assay: peptide ELISA, biotinylated peptide on streptavidin plate, IgG titrated (Example 14); details: remark: other sources report otherwise
tau 48-71 (human), sequence (peptide, as listed by the source limits assumed, form in doubt): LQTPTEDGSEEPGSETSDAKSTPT

recombinant tau (human), P10636, sequence (P10636 other isoform, or with tags, fused parts or gaps limits assumed): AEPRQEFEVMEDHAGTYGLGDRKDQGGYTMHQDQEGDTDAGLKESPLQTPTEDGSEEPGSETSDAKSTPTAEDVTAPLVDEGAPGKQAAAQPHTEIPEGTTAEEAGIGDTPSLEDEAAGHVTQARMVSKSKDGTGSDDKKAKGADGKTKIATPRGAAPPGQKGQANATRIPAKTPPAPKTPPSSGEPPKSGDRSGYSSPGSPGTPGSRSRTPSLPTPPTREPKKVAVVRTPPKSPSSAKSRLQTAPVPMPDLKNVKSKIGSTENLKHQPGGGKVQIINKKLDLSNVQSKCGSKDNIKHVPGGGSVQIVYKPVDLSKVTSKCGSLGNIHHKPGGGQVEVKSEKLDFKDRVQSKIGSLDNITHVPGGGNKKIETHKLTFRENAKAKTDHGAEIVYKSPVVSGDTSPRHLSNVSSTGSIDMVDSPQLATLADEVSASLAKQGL

EC50 (read off the curve) [1]: 0.008 µg/mL
EC50 (read off the curve) [2]: 0.06 µg/mL
B1: CBTAU-28.1 (antibody, human IgG1, V domains shown)
VH: QVQLQQSGAEVKKPGESLKISCEASGYSFTNYWIGWVRQMPGKGLEWMGIIYPGDSDTRYSPPFQGQVTITADRSITTAYLEWSSLKASDTAMYYCARVGRPSKGGWFDPWGQGTLVTVSS
VL: DIQMTQSPDSLAVSLGERATINCESSQTLLYSSNEKNYLAWYQQKPGQPPKLLISWASTPESGVPDRFSGSGSGTSFTLTISSLQAEDVAVYYCQQYYNSPYTFGQGTRLEIK

From patent US20170152307A1
